pKd: −log10 of the molar value.
Experiments:
Assay in all cases: EMSA
[1] = target: 4cFH (4cZf-M.HpaII F35H) (synthetic zinc finger; prokaryotic Mtase) (UniProt P15446)
[2] = target: 4bFH (4bZf-M.HpaII F35H) (synthetic zinc finger; prokaryotic Mtase) (UniProt P15446)
[3] = target: T1, M.HpaII wild type (no zinc finger) (UniProt P15446)
T1 sequence: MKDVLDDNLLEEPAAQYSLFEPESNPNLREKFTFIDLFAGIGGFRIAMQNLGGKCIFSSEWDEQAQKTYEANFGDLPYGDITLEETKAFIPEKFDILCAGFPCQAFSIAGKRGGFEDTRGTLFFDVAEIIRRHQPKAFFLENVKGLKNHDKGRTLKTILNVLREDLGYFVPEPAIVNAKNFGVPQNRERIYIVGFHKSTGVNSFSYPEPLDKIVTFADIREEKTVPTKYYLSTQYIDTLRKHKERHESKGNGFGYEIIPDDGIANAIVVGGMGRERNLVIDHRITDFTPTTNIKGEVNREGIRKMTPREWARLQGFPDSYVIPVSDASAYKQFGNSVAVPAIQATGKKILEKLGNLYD

TGGCCACGCCACTCCCCAGGCTCCATTCCAGGCCGGCGCAATGCTAGACTCGACGCGGCGCTCGTTGCCA (double strand) [Tb/c]
pKd [1]: 8.52 | pKd [2]: 7.42 | pKd [3]: 6.77

From publication PMC1807978
